Test results published in article PMC4097036 (Molecular immunology, 2014).

Legend:
[1] = biological target: anti-Bla g 1 scFv (chicken); experiment: crystal structure
[2] = biological target: rBla g 1-EC (combined with the scFv for crystallography) (Blattella germanica, UniProt Q9UAM5); experiment: SEC
[3] = biological target: rBla g 1-EC T80A, with GST tag (Blattella germanica, UniProt Q9UAM5, point mutant); experiment: ELISA
[4] = biological target: rBla g 1-EC V83A, with GST tag (Blattella germanica, UniProt Q9UAM5, point mutant); experiment: ELISA
[5] = biological target: rBla g 1-EC N93A, with GST tag (Blattella germanica, UniProt Q9UAM5, point mutant); experiment: ELISA
[6] = biological target: rBla g 1-EC N96A, with GST tag (Blattella germanica, UniProt Q9UAM5, point mutant); experiment: ELISA
[7] = biological target: rBla g 1-EC N104A, with GST tag (Blattella germanica, UniProt Q9UAM5, point mutant); experiment: ELISA
[8] = biological target: rBla g 1-EC D107A, with GST tag (Blattella germanica, UniProt Q9UAM5, point mutant); experiment: ELISA
[9] = biological target: rBla g 1-EC H113A, with GST tag (Blattella germanica, UniProt Q9UAM5, point mutant); experiment: ELISA
[10] = biological target: rBla g 1-EC E161A, with GST tag (Blattella germanica, Bla g 1.0101, UniProt Q9UAM5, point mutant); experiment: ELISA
[11] = biological target: rBla g 1-EC Q183A, with GST tag (Blattella germanica, Bla g 1.0101, UniProt Q9UAM5, point mutant); experiment: ELISA
[12] = biological target: rBla g 1-EC N193A, with GST tag (Blattella germanica, Bla g 1.0101, UniProt Q9UAM5, point mutant); experiment: ELISA
[13] = biological target: rBla g 1-EC E200A, with GST tag (Blattella germanica, UniProt Q9UAM5, point mutant); experiment: ELISA
[14] = biological target: rBla g 1-EC Q41A, with GST tag (Blattella germanica, UniProt Q9UAM5, point mutant); experiment: ELISA
[15] = biological target: rBla g 1-EC D50A, with GST tag (Blattella germanica, UniProt Q9UAM5, point mutant); experiment: ELISA
[16] = biological target: rBla g 1-EC I53A, with GST tag (Blattella germanica, UniProt Q9UAM5, point mutant); experiment: ELISA
[17] = biological target: rBla g 1-EC L60A, with GST tag (Blattella germanica, UniProt Q9UAM5, point mutant); experiment: ELISA
[18] = biological target: rBla g 1-EC D76A, with GST tag (Blattella germanica, UniProt Q9UAM5, point mutant); experiment: ELISA
[19] = biological target: rBla g 1-EC E79A, with GST tag (Blattella germanica, UniProt Q9UAM5, point mutant); experiment: ELISA

B1: anti-Bla g 1 scFv (scFv, V domains shown)
VH: AVTLDESGGGLQTPGGALSLVCKASGFTFSVYDMMWVRQAPSKGLEWVAGIGITGSTYYASAVKGRATISRDNGQSTVRLQLNNLRAEDTGTYYCARGGAYSINKLDTWGQGTEVIVSS
VL: QAALTQPSSVSANPGETVKITCSGGGSSSNYGWFQQKSPGSAPVTVIYNNNNRPSDIPSRFSGSKSGSTATLTITGVQADDEAVYFCGGRDSTYAGMFGAGTTLTVL
- stoichiometry N [1]: 2
- stoichiometry N [2]: 1 Bla g 1 per scFv (printed as 2:2)
- ΔΔG against wild type (RT ln(IC50 WT/IC50 mutant)) [3]: -1.7 kCal/mol
- ΔΔG against wild type (RT ln(IC50 WT/IC50 mutant)) [4]: -0.33 kCal/mol
- ΔΔG against wild type (RT ln(IC50 WT/IC50 mutant)) [5]: 0.31 kCal/mol
- ΔΔG against wild type (RT ln(IC50 WT/IC50 mutant)) [6]: 0.33 kCal/mol
- ΔΔG against wild type (RT ln(IC50 WT/IC50 mutant)) [7]: 0.4 kCal/mol
- ΔΔG against wild type (RT ln(IC50 WT/IC50 mutant)) [8]: 0.13 kCal/mol
- ΔΔG against wild type (RT ln(IC50 WT/IC50 mutant)) [9]: 0.09 kCal/mol
- ΔΔG against wild type (RT ln(IC50 WT/IC50 mutant)) [10]: 0.33 kCal/mol
- ΔΔG against wild type (RT ln(IC50 WT/IC50 mutant)) [11]: 0.33 kCal/mol
- ΔΔG against wild type (RT ln(IC50 WT/IC50 mutant)) [12]: -2.1 kCal/mol
- ΔΔG against wild type (RT ln(IC50 WT/IC50 mutant)) [13]: -0.02 kCal/mol
- ΔΔG against wild type (RT ln(IC50 WT/IC50 mutant)) [14]: -0.05 kCal/mol
- ΔΔG against wild type (RT ln(IC50 WT/IC50 mutant)) [15]: 0.06 kCal/mol
- ΔΔG against wild type (RT ln(IC50 WT/IC50 mutant)) [16]: 0.09 kCal/mol
- ΔΔG against wild type (RT ln(IC50 WT/IC50 mutant)) [17]: 0 kCal/mol
- ΔΔG against wild type (RT ln(IC50 WT/IC50 mutant)) [18]: -1.1 kCal/mol
- ΔΔG against wild type (RT ln(IC50 WT/IC50 mutant)) [19]: -1.2 kCal/mol
